Data taken from paper PMC9050003, “N- and C-terminal regions of the small heat shock protein IbpA from Acholeplasma laidlawii competitively govern its oligomerization pattern and chaperone-like activity†” (RSC Advances, 2020).

Columns and labels:
[1] = biological target: AlIbpAΔN25C14 (Acholeplasma laidlawii); test: SEC; Superdex 200 10/300, 0.5 ml min^−1, 1 mg ml^−1 protein, 100 μl injected; 50 mM NaCl, 50 mM KCl, 50 mM K2HPO4 pH 7.4; 30 °C; fractions as areas under the peaks; peaks also viewed by TEM
[2] = biological target: AlIbpAΔC14 (Acholeplasma laidlawii); test: as above
[3] = biological target: AlIbpASEPΔN12 (Acholeplasma laidlawii) (UniProt A9NFB2); test: SPR; BIAcore T200; His6-AlIbpA proteins immobilised on Ni2+-loaded NTA chip (FC2, about 2000 RU); His6-TnrA20 on FC1 as control, response difference FC2 − FC1; ADH 1.0 mg ml^−1 injected at 10 μl min^−1; 10 mM Na2HPO4, 150 mM NaCl, pH 7.4; KD calculated from the binding curve slopes
[4] = biological target: AlIbpAΔN12 (Acholeplasma laidlawii) (UniProt A9NFB2); test: as above
[5] = biological target: AlIbpAN11N12 (Acholeplasma laidlawii) (UniProt A9NFB2); test: as above
[6] = biological target: AlIbpAΔC14 (Acholeplasma laidlawii); test: as above
[7] = biological target: AlIbpAΔN25 (Acholeplasma laidlawii) (UniProt A9NFB2); test: as above
[8] = biological target: full-length recombinant AlIbpA (small heat shock protein IbpA from Acholeplasma laidlawii), His6-tagged (Acholeplasma laidlawii) (UniProt A9NFB2); test: as above
[9] = biological target: AlIbpASEPΔN25 (Acholeplasma laidlawii) (UniProt A9NFB2); test: as above
[10] = biological target: AlIbpAΔN12C14 (Acholeplasma laidlawii); test: SEC; Superdex 200 10/300, 0.5 ml min^−1, 1 mg ml^−1 protein, 100 μl injected; 50 mM NaCl, 50 mM KCl, 50 mM K2HPO4 pH 7.4; 30 °C; fractions as areas under the peaks; peaks also viewed by TEM
[11] = biological target: the molecule itself; test: as above
[12] = biological target: the molecule itself; test: as above; remark: listed apart in the source

AlIbpAΔN25C14 (domain or fragment) was tested, and the fraction of the protein in I peak of the elution profile [1] was 1% and the fraction of the protein in II peak of the elution profile [1] was 50%.

For AlIbpAΔC14 (domain or fragment), the fraction of the protein in I peak of the elution profile [2] was 7% and the fraction of the protein in II peak of the elution profile [2] was 86%.

alcohol dehydrogenase (enzyme) was tested, and the Kd [3] was 7200 nM, the Kd [4] was 3500 nM and the Kd [5] was 500 nM. It also gave a Kd [6] of 700 nM, a Kd [7] of 2200 nM and a Kd [8] of 1600 nM. The Kd [9] was 3200 nM.

With AlIbpAΔN12C14 (domain or fragment) the fraction of the protein in I peak of the elution profile [10] was 1% and the fraction of the protein in II peak of the elution profile [10] was 86%.

B1: AlIbpAΔN25 (domain or fragment, Acholeplasma laidlawii, UniProt A9NFB2 26-137, looked up)
chain: TTSNLMRTDIKETQNGYSLSVELPGFKKEDVKVSLEDGYLTIEAHTSKNSETKDQATKYIRKERYEGTMKRSYYVGNLHLDEINGTFENGMLHIELPKETKKEPEKRYLELK
notes: AlIbpA of Acholeplasma laidlawii PG8 with 25 N-terminal amino acids removed (lacks both (W/F)(D/F)PF-like motifs); source: E. coli BL21(DE3), purified (Ni-NTA); not shown: His6, N-terminal, kept
For B1, the “fraction of the protein in I peak of the elution profile” value [11] was 77 ± 21.3% and the “fraction of the protein in II peak of the elution profile” value [11] was 12 ± 2.4%.

B2: AlIbpASEPΔN25 (domain or fragment, Acholeplasma laidlawii, UniProt A9NFB2 26-137, looked up)
chain: TTSNLMRTDIKETQNGYSLSVELPGFKKEDVKVSLEDGYLTIEAHTSKNSETKDQATKYIRKERYEGTMKRSYYVGNLHLDEINGTFENGMLHIELPKETKKEPEKRYSEPK
notes: AlIbpA of Acholeplasma laidlawii PG8 lacking 25 N-terminal amino acids and with LEL substituted by SEP (L134S, L136P); source: E. coli BL21(DE3), purified (Ni-NTA); not shown: His6, N-terminal, kept
With B2 the “fraction of the protein in I peak of the elution profile” value [11] was 69 ± 15.5% and the “fraction of the protein in II peak of the elution profile” value [11] was 23 ± 3.2%.

B3: full-length recombinant AlIbpA (small heat shock protein IbpA from Acholeplasma laidlawii), His6-tagged (natural protein, UniProt A9NFB2 1-137, looked up)
chain: MLSLLNKNRSFFDDFFEDFNVLNPVTTSNLMRTDIKETQNGYSLSVELPGFKKEDVKVSLEDGYLTIEAHTSKNSETKDQATKYIRKERYEGTMKRSYYVGNLHLDEINGTFENGMLHIELPKETKKEPEKRYLELK
notes: small heat shock protein IbpA (AlIbpA) of Acholeplasma laidlawii PG8, full length; Legends call it AlIbpA-His6, the methods say the His6 tag is N-terminal; In solution a mixture of about 24-mer globules, fibrils and agglomerates; also called AlIbpA-His6; His6-IbpA; source: E. coli BL21(DE3), purified (Ni-NTA); also in E. coli BL21 pET-IbpA cells, cross-linked in the cells, crude cell extract; not …
In the case of B3, the “fraction of the protein in I peak of the elution profile” value [11] is reported as 23 ± 10.3%, the “fraction of the protein in II peak of the elution profile” value [11] is reported as 74 ± 17.8% and the “stoichiometry N” value [12] is reported as about 24.

B4: AlIbpAN11N12 (natural protein, Acholeplasma laidlawii, UniProt A9NFB2 1-137, looked up)
chain: MLSLLNKNRSNNDDFFEDFNVLNPVTTSNLMRTDIKETQNGYSLSVELPGFKKEDVKVSLEDGYLTIEAHTSKNSETKDQATKYIRKERYEGTMKRSYYVGNLHLDEINGTFENGMLHIELPKETKKEPEKRYLELK
notes: AlIbpA of Acholeplasma laidlawii PG8 with F11F12 substituted by N11N12, complete N-terminus length kept; source: E. coli BL21(DE3), purified (Ni-NTA); not shown: His6, N-terminal, kept
In the case of B4, the “fraction of the protein in I peak of the elution profile” value [11] is reported as 8 ± 1.7%, the “fraction of the protein in II peak of the elution profile” value [11] is reported as 88 ± 12.2% and the “stoichiometry N” value [12] is reported as about 24.

B5: AlIbpASEP (natural protein, Acholeplasma laidlawii, UniProt A9NFB2 1-137, looked up)
chain: MLSLLNKNRSFFDDFFEDFNVLNPVTTSNLMRTDIKETQNGYSLSVELPGFKKEDVKVSLEDGYLTIEAHTSKNSETKDQATKYIRKERYEGTMKRSYYVGNLHLDEINGTFENGMLHIELPKETKKEPEKRYSEPK
notes: AlIbpA of Acholeplasma laidlawii PG8 with the C-terminal LEL motif substituted by SEP (L134 to S134, L136 to P136), length of the C-terminus kept; source: E. coli BL21(DE3), purified (Ni-NTA); not shown: His6, N-terminal, kept
In the case of B5, the “fraction of the protein in I peak of the elution profile” value [11] is reported as 18 ± 4.4% and the “fraction of the protein in II peak of the elution profile” value [11] is reported as 56 ± 7.8%.

B6: AlIbpAΔN12 (domain or fragment, Acholeplasma laidlawii, UniProt A9NFB2 13-137, looked up)
chain: DDFFEDFNVLNPVTTSNLMRTDIKETQNGYSLSVELPGFKKEDVKVSLEDGYLTIEAHTSKNSETKDQATKYIRKERYEGTMKRSYYVGNLHLDEINGTFENGMLHIELPKETKKEPEKRYLELK
notes: AlIbpA of Acholeplasma laidlawii PG8 lacking the first 12 amino acid residues; source: E. coli BL21(DE3), purified (Ni-NTA); not shown: His6, N-terminal, kept
With B6 the “fraction of the protein in I peak of the elution profile” value [11] was 88 ± 17.1% and the “fraction of the protein in II peak of the elution profile” value [11] was 10 ± 1.1%.

B7: AlIbpASEPΔN12 (domain or fragment, Acholeplasma laidlawii, UniProt A9NFB2 13-137, looked up)
chain: DDFFEDFNVLNPVTTSNLMRTDIKETQNGYSLSVELPGFKKEDVKVSLEDGYLTIEAHTSKNSETKDQATKYIRKERYEGTMKRSYYVGNLHLDEINGTFENGMLHIELPKETKKEPEKRYSEPK
notes: AlIbpA of Acholeplasma laidlawii PG8 lacking 12 N-terminal amino acids and with LEL substituted by SEP (L134S, L136P); source: E. coli BL21(DE3), purified (Ni-NTA); not shown: His6, N-terminal, kept
B7 was tested, and the “fraction of the protein in I peak of the elution profile” value [11] was 2 ± 0.8% and the “fraction of the protein in II peak of the elution profile” value [11] was 59 ± 10.1%.
